IntAct's records for PubMed 29039417

B1: BBSome complex member BBS4 (Homo sapiens), Q96RK4 (parent)
chain: MAEERVATRTQFPVSTESQKPRQKKAPEFPILEKQNWLIHLHYIRKDYEACKAVIKEQLQETQGLCEYAIYVQALIFRLEGNIQESLELFQTCAVLSPQSADNLKQVARSLFLLGKHKAAIEVYNEAAKLNQKDWEISHNLGVCYIYLKQFNKAQDQLHNALNLNRHDLTYIMLGKIHLLEGDLDKAIEVYKKAVEFSPENTELLTTLGLLYLQLGIYQKAFEHLGNALTYDPTNYKAILAAGSMMQTHGDFDVALTKYRVVACAVPESPPLWNNIGMCFFGKKKYVAAISCLKRANYLAPFDWKILYNLGLVHLTMQQYASAFHFLSAAINFQPKMGELYMLLAVALTNLEDIENAKRAYAEAVHLDKCNPLVNLNYAVLLYNQGEKKNALAQYQEMEKKVSLLKDNSSLEFDSEMVEMAQKLGAALQVGEALVWTKPVKDPKSKHQTTSTSKPASFQQPLGSNQALGQAMSSAAAYRTLPSGAGGTSQFTKPPSLPLEPEPAVESSPTETSEQIREK
partner: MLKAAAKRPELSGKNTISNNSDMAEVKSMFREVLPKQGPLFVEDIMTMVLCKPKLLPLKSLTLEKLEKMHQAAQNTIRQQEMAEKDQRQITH

Variants of: B1
Conditions: with bbip1_human BBIP1, A8MTZ0

Effect of a mutation on the interaction, with no effect:
MAEERVATRTQFPVSTESQKPRQKKAPEFPILEKQNWLIHLHYIRKDYEACKAVIKEQLQETQGLCEYAIYVQALIFRLEGNIQESLELFQTCAVLSPQSADNLKQVARSLFLLGKHKAAIEVYNEAAKLNQKDWEISHNLGVCYIYLKQFNKAQDQLHNALNLNRHDLTYIMLGKIHLLEGDLDKAIEVYKKAVEFSPENTELLTTLGLLYLQLGIYQKAFEHLGNALTYDPTNYKAILAAGSMMQTHGDFDVALTKYRVVACAVPESPPLWNNIGMCFFGKKKYVAAISCLKRANYLAPFDWKILYNLGLVHLTMQQYASAFHFLSAAINFQPKMGELYMLLAVALTNLEDIENAKRAYAEAVHLDKCNPLVNLNYAVLLYNQGEKKNALAQYQEMEKKVSLLKDNSSLEFDSEMVEMAQKLGAALQVGEELVWTKPVKDPKSKHQTTSTSKPASFQQPLGSNQALGQAMSSAAAYRTLPSGAGGTSQFTKPPSLPLEPEPAVESSPTETSEQIREK [A433E]
MAEERVATRTQFPVSTESQKPRQKKAPEFPILEKQNWLIHLHYIRKDYEACKAVIKEQLQETQGLCEYAIYVQALIFRLEGNIQESLELFQTCAVLSPQSADNLKQVARSLFLLGKHKAAIEVYNEAAKLNQKDWEISHNLGVCYIYLKQFNKAQDQLHNALNLNRHDLTYIMLGKIHLLEGDLDKAIEVYKKAVEFSPENTELLTTLGLLYLQLGIYQKAFEHLGNALTYDPTNYKAILAAGSMMQTHGDFDVALTKYRVVACAVPESPPLWNNIGMCFFGKKKYVAAISCLKRANYLAPFDWKILYNLGLVHLTMQQYASAFHFLSAAINFQPKMGELYMLLAVALTNLEDIENAKRAYAEAVHLDKCNPLVNLNYAVLLYNQGEKKNALAQYQEMEKKVSLLKDNSSLEFDSEMVEMAQKLGAALQVGEKLVWTKPVKDPKSKHQTTSTSKPASFQQPLGSNQALGQAMSSAAAYRTLPSGAGGTSQFTKPPSLPLEPEPAVESSPTETSEQIREK [A433K]
MAEERVATRTQFPVSTESQKPRQKKAPEFPILEKQNWLIHLHYIRKDYEACKAVIKEQLQETQGLCEYAIYVQALIFRLEGNIQESLELFQTCAVLSPQSADNLKQVARSLFLLGKHKAAIEVYNEAAKLNQKDWEISHNLGVCYIYLKQFNKAQDQLHNALNLNRHDLTYIMLGKIHLLEGDLDKAIEVYKKAVEFSPENTELLTTLGLLYLQLGIYQKAFEHLGNALTYDPTNYKAILAAGSMMQTHGDFDVALTKYRVVACAVPESPPLWNNIGMCFFGKKKYVAAISCLKRANYLAPFDWKILYNLGLVHLTMQQYASAFHFLSAAINFQPKMGELYMLLAVALTNLEDIENAKRAYAEAVHLDKCNPLVNLNYAVLLYNQGEKKNALAQYQEMEKKVSLLKDNSSLEFDSEMVEMAQKLGAALQVGEALKWTKPVKDPKSKHQTTSTSKPASFQQPLGSNQALGQAMSSAAAYRTLPSGAGGTSQFTKPPSLPLEPEPAVESSPTETSEQIREK [V435K]
MAEERVATRTQFPVSTESQKPRQKKAPEFPILEKQNWLIHLHYIRKDYEACKAVIKEQLQETQGLCEYAIYVQALIFRLEGNIQESLELFQTCAVLSPQSADNLKQVARSLFLLGKHKAAIEVYNEAAKLNQKDWEISHNLGVCYIYLKQFNKAQDQLHNALNLNRHDLTYIMLGKIHLLEGDLDKAIEVYKKAVEFSPENTELLTTLGLLYLQLGIYQKAFEHLGNALTYDPTNYKAILAAGSMMQTHGDFDVALTKYRVVACAVPESPPLWNNIGMCFFGKKKYVAAISCLKRANYLAPFDWKILYNLGLVHLTMQQYASAFHFLSAAINFQPKMGELYMLLAVALTNLEDIENAKRAYAEAVHLDKCNPLVNLNYAVLLYNQGEKKNALAQYQEMEKKVSLLKDNSSLEFDSEMVEMAQKLGAALQVGEALAWTKPVKDPKSKHQTTSTSKPASFQQPLGSNQALGQAMSSAAAYRTLPSGAGGTSQFTKPPSLPLEPEPAVESSPTETSEQIREK [V435A]
MAEERVATRTQFPVSTESQKPRQKKAPEFPILEKQNWLIHLHYIRKDYEACKAVIKEQLQETQGLCEYAIYVQALIFRLEGNIQESLELFQTCAVLSPQSADNLKQVARSLFLLGKHKAAIEVYNEAAKLNQKDWEISHNLGVCYIYLKQFNKAQDQLHNALNLNRHDLTYIMLGKIHLLEGDLDKAIEVYKKAVEFSPENTELLTTLGLLYLQLGIYQKAFEHLGNALTYDPTNYKAILAAGSMMQTHGDFDVALTKYRVVACAVPESPPLWNNIGMCFFGKKKYVAAISCLKRANYLAPFDWKILYNLGLVHLTMQQYASAFHFLSAAINFQPKMGELYMLLAVALTNLEDIENAKRAYAEAVHLDKCNPLVNLNYAVLLYNQGEKKNALAQYQEMEKKVSLLKDNSSLEFDSEMVEMAQKLGAALQVGEALEWTKPVKDPKSKHQTTSTSKPASFQQPLGSNQALGQAMSSAAAYRTLPSGAGGTSQFTKPPSLPLEPEPAVESSPTETSEQIREK [V435E]
MAEERVATRTQFPVSTESQKPRQKKAPEFPILEKQNWLIHLHYIRKDYEACKAVIKEQLQETQGLCEYAIYVQALIFRLEGNIQESLELFQTCAVLSPQSADNLKQVARSLFLLGKHKAAIEVYNEAAKLNQKDWEISHNLGVCYIYLKQFNKAQDQLHNALNLNRHDLTYIMLGKIHLLEGDLDKAIEVYKKAVEFSPENTELLTTLGLLYLQLGIYQKAFEHLGNALTYDPTNYKAILAAGSMMQTHGDFDVALTKYRVVACAVPESPPLWNNIGMCFFGKKKYVAAISCLKRANYLAPFDWKILYNLGLVHLTMQQYASAFHFLSAAINFQPKMGELYMLLAVALTNLEDIENAKRAYAEAVHLDKCNPLVNLNYAVLLYNQGEKKNALAQYQEMEKKVSLLKDNSSLEFDSEMVEMAQKLGAALQVGEAKVWTKPVKDPKSKHQTTSTSKPASFQQPLGSNQALGQAMSSAAAYRTLPSGAGGTSQFTKPPSLPLEPEPAVESSPTETSEQIREK [L434K]
MAEERVATRTQFPVSTESQKPRQKKAPEFPILEKQNWLIHLHYIRKDYEACKAVIKEQLQETQGLCEYAIYVQALIFRLEGNIQESLELFQTCAVLSPQSADNLKQVARSLFLLGKHKAAIEVYNEAAKLNQKDWEISHNLGVCYIYLKQFNKAQDQLHNALNLNRHDLTYIMLGKIHLLEGDLDKAIEVYKKAVEFSPENTELLTTLGLLYLQLGIYQKAFEHLGNALTYDPTNYKAILAAGSMMQTHGDFDVALTKYRVVACAVPESPPLWNNIGMCFFGKKKYVAAISCLKRANYLAPFDWKILYNLGLVHLTMQQYASAFHFLSAAINFQPKMGELYMLLAVALTNLEDIENAKRAYAEAVHLDKCNPLVNLNYAVLLYNQGEKKNALAQYQEMEKKVSLLKDNSSLEFDSEMVEMAQKLGAALQVGEAEVWTKPVKDPKSKHQTTSTSKPASFQQPLGSNQALGQAMSSAAAYRTLPSGAGGTSQFTKPPSLPLEPEPAVESSPTETSEQIREK [L434E]
MAEERVATRTQFPVSTESQKPRQKKAPEFPILEKQNWLIHLHYIRKDYEACKAVIKEQLQETQGLCEYAIYVQALIFRLEGNIQESLELFQTCAVLSPQSADNLKQVARSLFLLGKHKAAIEVYNEAAKLNQKDWEISHNLGVCYIYLKQFNKAQDQLHNALNLNRHDLTYIMLGKIHLLEGDLDKAIEVYKKAVEFSPENTELLTTLGLLYLQLGIYQKAFEHLGNALTYDPTNYKAILAAGSMMQTHGDFDVALTKYRVVACAVPESPPLWNNIGMCFFGKKKYVAAISCLKRANYLAPFDWKILYNLGLVHLTMQQYASAFHFLSAAINFQPKMGELYMLLAVALTNLEDIENAKRAYAEAVHLDKCNPLVNLNYAVLLYNQGEKKNALAQYQEMEKKVSLLKDNSSLEFDSEMVEMAQKLGAALQVGEAAVWTKPVKDPKSKHQTTSTSKPASFQQPLGSNQALGQAMSSAAAYRTLPSGAGGTSQFTKPPSLPLEPEPAVESSPTETSEQIREK [L434A]
MAEERVATRTQFPVSTESQKPRQKKAPEFPILEKQNWLIHLHYIRKDYEACKAVIKEQLQETQGLCEYAIYVQALIFRLEGNIQESLELFQTCAVLSPQSADNLKQVARSLFLLGKHKAAIEVYNEAAKLNQKDWEISHNLGVCYIYLKQFNKAQDQLHNALNLNRHDLTYIMLGKIHLLEGDLDKAIEVYKKAVEFSPENTELLTTLGLLYLQLGIYQKAFEHLGNALTYDPTNYKAILAAGSMMQTHGDFDVALTKYRVVACAVPESPPLWNNIGMCFFGKKKYVAAISCLKRANYLAPFDWKILYNLGLVHLTMQQYASAFHFLSAAINFQPKMGELYMLLAVALTNLEDIENAKRAYAEAVHLDKCNPLVNLNYAVLLYNQGEKKNALAQYQEMEKKVSLLKDNSSLEFDSEMVEMAQKLGAALQVGAALVWTKPVKDPKSKHQTTSTSKPASFQQPLGSNQALGQAMSSAAAYRTLPSGAGGTSQFTKPPSLPLEPEPAVESSPTETSEQIREK [E432A]
MAEERVATRTQFPVSTESQKPRQKKAPEFPILEKQNWLIHLHYIRKDYEACKAVIKEQLQETQGLCEYAIYVQALIFRLEGNIQESLELFQTCAVLSPQSADNLKQVARSLFLLGKHKAAIEVYNEAAKLNQKDWEISHNLGVCYIYLKQFNKAQDQLHNALNLNRHDLTYIMLGKIHLLEGDLDKAIEVYKKAVEFSPENTELLTTLGLLYLQLGIYQKAFEHLGNALTYDPTNYKAILAAGSMMQTHGDFDVALTKYRVVACAVPESPPLWNNIGMCFFGKKKYVAAISCLKRANYLAPFDWKILYNLGLVHLTMQQYASAFHFLSAAINFQPKMGELYMLLAVALTNLEDIENAKRAYAEAVHLDKCNPLVNLNYAVLLYNQGEKKNALAQYQEMEKKVSLLKDNSSLEFDSEMVEMAQKLGAALQVGKALVWTKPVKDPKSKHQTTSTSKPASFQQPLGSNQALGQAMSSAAAYRTLPSGAGGTSQFTKPPSLPLEPEPAVESSPTETSEQIREK [E432K]
MAEERVATRTQFPVSTESQKPRQKKAPEFPILEKQNWLIHLHYIRKDYEACKAVIKEQLQETQGLCEYAIYVQALIFRLEGNIQESLELFQTCAVLSPQSADNLKQVARSLFLLGKHKAAIEVYNEAAKLNQKDWEISHNLGVCYIYLKQFNKAQDQLHNALNLNRHDLTYIMLGKIHLLEGDLDKAIEVYKKAVEFSPENTELLTTLGLLYLQLGIYQKAFEHLGNALTYDPTNYKAILAAGSMMQTHGDFDVALTKYRVVACAVPESPPLWNNIGMCFFGKKKYVAAISCLKRANYLAPFDWKILYNLGLVHLTMQQYASAFHFLSAAINFQPKMGELYMLLAVALTNLEDIENAKRAYAEAVHLDKCNPLVNLNYAVLLYNQGEKKNALAQYQEMEKKVSLLKDNSSLEFDSEMVEMAQKLGAALQVKEALVWTKPVKDPKSKHQTTSTSKPASFQQPLGSNQALGQAMSSAAAYRTLPSGAGGTSQFTKPPSLPLEPEPAVESSPTETSEQIREK [G431K]
MAEERVATRTQFPVSTESQKPRQKKAPEFPILEKQNWLIHLHYIRKDYEACKAVIKEQLQETQGLCEYAIYVQALIFRLEGNIQESLELFQTCAVLSPQSADNLKQVARSLFLLGKHKAAIEVYNEAAKLNQKDWEISHNLGVCYIYLKQFNKAQDQLHNALNLNRHDLTYIMLGKIHLLEGDLDKAIEVYKKAVEFSPENTELLTTLGLLYLQLGIYQKAFEHLGNALTYDPTNYKAILAAGSMMQTHGDFDVALTKYRVVACAVPESPPLWNNIGMCFFGKKKYVAAISCLKRANYLAPFDWKILYNLGLVHLTMQQYASAFHFLSAAINFQPKMGELYMLLAVALTNLEDIENAKRAYAEAVHLDKCNPLVNLNYAVLLYNQGEKKNALAQYQEMEKKVSLLKDNSSLEFDSEMVEMAQKLGAALQVEEALVWTKPVKDPKSKHQTTSTSKPASFQQPLGSNQALGQAMSSAAAYRTLPSGAGGTSQFTKPPSLPLEPEPAVESSPTETSEQIREK [G431E]
